The text below walks through data of PMC12345224.

Targets include FleN^A139V; FleN^V24L; FleN^R218C; FleN^L260R.
Common to all, as to test: bacterial two-hybrid (β-galactosidase activity)
Conditions in all cases: in vivo, E. coli BTH101; T18 and T25 fusions; parent: est. 1400; read off a plot

wild-type FleN A139V: the response (Miller unites) with FleN^A139V is 870.

Turning to wild-type FleN V24L, the response (Miller unites) with FleN^V24L stood at 130.

Consider wild-type FleN R218C, for which the response (Miller unites) in the assay with FleN^R218C worked out at 1200.

For the substance wild-type FleN L260R, the response (Miller unites) in the assay with FleN^L260R worked out at 1000.
